This note sets out measurements from patent US20190249141A1.

In experiment [1] the target is CD40 on mouse splenic B cells (mouse) (UniProt P27512). Kind of experiment: cell-based or functional assay.
Experiment [2] has as its target recombinant murine CD40L (M112-L260) with N-terminal HA tag (murine). Kind of experiment: loading of HA-tagged CD40L on anti-HA antibody microbeads; protein in the supernatant (A280) measured before and after incubation.

Chain of UniProt P27512 (P27512 20-289): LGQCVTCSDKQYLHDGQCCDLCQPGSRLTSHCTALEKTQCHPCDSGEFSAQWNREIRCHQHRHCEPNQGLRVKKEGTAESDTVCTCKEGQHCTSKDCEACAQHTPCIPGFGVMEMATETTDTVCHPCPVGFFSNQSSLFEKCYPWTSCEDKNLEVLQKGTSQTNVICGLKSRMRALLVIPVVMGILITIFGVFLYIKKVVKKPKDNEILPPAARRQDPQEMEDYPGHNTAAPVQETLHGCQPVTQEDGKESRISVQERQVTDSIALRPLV

In turn, “anti-CD40 antibody (clone 1C10, eBioscience)” showed a cell viability on Day 6 of B cells activated by αCD40 in experiment [1] of 2 to 5%. Take “anti-HA peptide antibody covalently attached to superparamagnetic microbeads (Pierce)”: in experiment [2], the maximum surface density of CD40L on anti-HA microbeads (molecules µm^-2) came out at 27000.
